Measurements published in patent US20160185837A1 (Medimmune Limited, priority 2013, published 2016).
Numbering of substitutions follows the chain as printed. Where “and” joins values, the source holds several entries; their conditions need not be identical. Equal entries are not always repeated.

T1: human GIP receptor (hGIPr) (Homo sapiens, UniProt P48546)
T1 construct: expressed in transfected cells
T1 sequence (P48546 22-466): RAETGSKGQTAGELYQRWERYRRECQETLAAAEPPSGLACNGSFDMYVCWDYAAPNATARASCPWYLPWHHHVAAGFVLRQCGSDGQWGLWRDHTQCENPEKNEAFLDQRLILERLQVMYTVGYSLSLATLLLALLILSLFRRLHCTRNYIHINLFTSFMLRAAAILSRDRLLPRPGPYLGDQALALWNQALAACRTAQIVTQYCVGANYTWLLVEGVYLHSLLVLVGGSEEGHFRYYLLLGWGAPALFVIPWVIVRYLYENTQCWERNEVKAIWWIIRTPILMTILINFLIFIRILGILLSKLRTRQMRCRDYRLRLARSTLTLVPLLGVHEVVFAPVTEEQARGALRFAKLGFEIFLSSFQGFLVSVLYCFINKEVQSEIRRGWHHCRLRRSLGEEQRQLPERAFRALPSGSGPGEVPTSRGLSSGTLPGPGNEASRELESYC

T2: mouse GLP-1 receptor (mGLP-1r) (Mus musculus, UniProt O35659)
T2 construct: expressed in transfected cells; host or cells: HEK293s or CHO cells
T2 sequence (O35659 22-463): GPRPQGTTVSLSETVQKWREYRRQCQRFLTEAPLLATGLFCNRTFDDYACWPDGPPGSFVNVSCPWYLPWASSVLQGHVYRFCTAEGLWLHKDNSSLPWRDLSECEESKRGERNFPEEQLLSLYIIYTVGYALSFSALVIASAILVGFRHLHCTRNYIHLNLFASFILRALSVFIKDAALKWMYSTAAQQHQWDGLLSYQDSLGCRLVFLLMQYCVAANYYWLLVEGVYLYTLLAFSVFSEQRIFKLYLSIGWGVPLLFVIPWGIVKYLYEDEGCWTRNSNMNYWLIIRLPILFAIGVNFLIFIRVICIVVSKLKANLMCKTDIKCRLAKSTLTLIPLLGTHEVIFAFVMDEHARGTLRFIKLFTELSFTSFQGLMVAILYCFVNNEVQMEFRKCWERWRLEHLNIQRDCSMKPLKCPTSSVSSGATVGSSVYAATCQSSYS

T3: mouse GIP receptor (mGIPr) (Mus musculus, UniProt Q0P543)
T3 construct: expressed in transfected cells; host or cells: HEK293s or CHO cells
T3 sequence (Q0P543 19-460): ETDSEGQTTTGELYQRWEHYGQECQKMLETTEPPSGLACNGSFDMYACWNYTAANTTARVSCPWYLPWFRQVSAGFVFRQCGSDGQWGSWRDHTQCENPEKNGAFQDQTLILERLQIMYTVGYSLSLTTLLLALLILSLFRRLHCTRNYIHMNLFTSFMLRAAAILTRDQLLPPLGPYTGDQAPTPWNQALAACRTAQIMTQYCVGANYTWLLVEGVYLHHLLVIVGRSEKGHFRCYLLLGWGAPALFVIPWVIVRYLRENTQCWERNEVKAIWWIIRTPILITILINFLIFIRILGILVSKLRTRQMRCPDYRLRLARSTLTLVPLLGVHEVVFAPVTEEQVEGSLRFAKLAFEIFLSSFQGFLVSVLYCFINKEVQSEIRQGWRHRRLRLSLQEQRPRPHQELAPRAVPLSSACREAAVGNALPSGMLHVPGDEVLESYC

T4: rat GLP-1 receptor (rGLP-1r) (Rattus norvegicus, UniProt P32301)
T4 construct: expressed in transfected cells; host or cells: HEK293s or CHO cells
T4 sequence (P32301 22-463): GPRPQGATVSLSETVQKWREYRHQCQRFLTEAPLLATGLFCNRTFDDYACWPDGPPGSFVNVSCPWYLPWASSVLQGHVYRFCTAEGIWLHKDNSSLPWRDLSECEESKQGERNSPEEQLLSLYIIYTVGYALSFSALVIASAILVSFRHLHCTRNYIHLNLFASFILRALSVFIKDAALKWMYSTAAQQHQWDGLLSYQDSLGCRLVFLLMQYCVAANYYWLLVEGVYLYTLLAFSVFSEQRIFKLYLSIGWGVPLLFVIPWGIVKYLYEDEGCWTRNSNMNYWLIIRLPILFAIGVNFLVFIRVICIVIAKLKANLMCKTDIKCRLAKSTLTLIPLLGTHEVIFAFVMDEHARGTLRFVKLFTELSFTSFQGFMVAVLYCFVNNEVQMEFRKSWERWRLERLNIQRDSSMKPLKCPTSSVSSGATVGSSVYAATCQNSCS

T5: rat GIP receptor (rGIPr) (Rattus norvegicus, UniProt P43219)
T5 construct: expressed in transfected cells; host or cells: HEK293s or CHO cells
T5 sequence (P43219 19-455): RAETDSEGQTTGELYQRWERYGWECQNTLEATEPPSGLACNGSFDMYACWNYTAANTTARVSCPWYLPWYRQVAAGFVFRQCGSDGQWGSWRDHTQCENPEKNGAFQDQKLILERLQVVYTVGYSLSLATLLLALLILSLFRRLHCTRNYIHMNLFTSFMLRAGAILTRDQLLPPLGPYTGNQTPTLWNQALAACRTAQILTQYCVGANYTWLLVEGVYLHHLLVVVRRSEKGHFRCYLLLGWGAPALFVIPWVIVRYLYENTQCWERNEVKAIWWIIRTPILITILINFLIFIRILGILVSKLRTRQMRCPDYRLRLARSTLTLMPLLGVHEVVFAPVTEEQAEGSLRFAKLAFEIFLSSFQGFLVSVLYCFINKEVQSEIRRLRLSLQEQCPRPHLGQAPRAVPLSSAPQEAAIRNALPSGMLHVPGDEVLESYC

B1: IP170 (protein)
chain: YSEGTFTSDVSSYMERQAIDEFIAWLLKGGAAAGGSGSTASSGSGSATGGGGAATHTCPPCPAPEF
modifications: /note=“Description of Artificial Sequence Synthetic Peptide-linker-hinge polypeptide”
B2: IP223 (protein)
chain: B1 chain with R16E, Q17E
modifications: /note=“Description of Artificial Sequence Synthetic Peptide-linker-hinge polypeptide”
B3: IP209 (protein)
chain: B1 chain with V10Y
modifications: /note=“Description of Artificial Sequence Synthetic Peptide-linker-hinge polypeptide”
B4: IP226 (protein)
chain: B1 chain with S12K, Y13L, M14L
modifications: /note=“Description of Artificial Sequence Synthetic Peptide-linker-hinge polypeptide”
B5: IP203 (protein)
chain: B1 chain with Y1H, S2G, M14L, R16G, I19A, D20K, L27V
modifications: /note=“Description of Artificial Sequence Synthetic Peptide-linker-hinge polypeptide”
B6: IP250 (protein)
chain: B1 chain with S12I, Y13A, E15D
modifications: /note=“Description of Artificial Sequence Synthetic Peptide-linker-hinge polypeptide”
B7: IP146 (protein)
chain: HGEGTFTSDVSSYLEGQAAKEFIAWLVKGAAAGGSGSTASSGSGSATGGGGAACPPCPAPEF
modifications: /note=“Description of Artificial Sequence Synthetic Peptide-linker-hinge polypeptide”
B8: IP207 (protein)
chain: YAEGTFISDYSIAMDKIHQQDFVNWLLAQKGKKNDWKHNITQAAAGGSGSTASSGSGSATGGGGAATHTCPPCPAPELL
modifications: /note=“Description of Artificial Sequence Synthetic Peptide-linker-hinge polypeptide”
B9: IP188 (protein)
chain: YSEGTFISDYSIAMDKIHQQDFVNWLLAQKAPPGGGGGSGGGGSGGGGSGGGGSATHTCPPCPAPEF
modifications: /note=“Description of Artificial Sequence Synthetic Peptide-linker-hinge polypeptide”
B10: IP015 (protein)
chain: HGEGTFTSDVSSYLEGQAAKEFIAWLVKGAAAGGSGSTASSGSGSATGGGGAATHTCPPCPAPEF
modifications: /note=“Description of Artificial Sequence Synthetic Peptide-linker-hinge polypeptide”

target: T6, human GLP-1 receptor (hGLP-1r) (Homo sapiens, UniProt P43220); experiment: BSA-cAMP assay, cells expressing human GLP-1 receptor; type: cell-based; settings: BSA-cAMP assay; batch 1 unless a batch is given; read-out: cAMP activity hGLP1r (EC50)
T6 construct: expressed in transfected cells
Protocol: (§1) One basic cAMP assays was performed, differing in the medium used for the assay, the “BSA-cAMP assay”:
(§2) BSA-based assay medium: 0.1% bovine serum albumin (BSA) in
(§3) In certain aspects, the assay can also be carried out in medium supplemented with serum albumin that corresponds to the receptor being tested, e.g., human serum albumin for testing cAMP activity at hGIPr or hGLP-1r, rat serum albumin for testing cAMP activity at rGIPr or rGLP-1r, and so on. […] All sample dilutions were made in duplicate.
(§4) A frozen cryo-vial of cells expressing the receptor of interest was thawed rapidly in a water-bath, transferred to pre-warmed assay media and spun at 240×g for 5 minutes. Cells were re-suspended in assay buffer at an optimized concentration (e.g., hGLP-1r and hGIPr cells at 0.5×10^5 cells/ml).
(§5) To this, 5 μL cell suspension was added and the plates incubated at room temperature for 30 minutes.
(§6) cAMP levels were measured using a commercially available cAMP dynamic 2 HTRF kit (Cisbio, Cat #62AM4PEJ), following the two step protocol as per manufacturer's recommendations. In brief; anti-cAMP cryptate (donor fluorophore) and cAMP-d2 (acceptor fluorophore) were made up separately by diluting each 1/20 in conjugate & lysis buffer provided in the kit. 5 μL anti-cAMP cryptate was added to all wells of the assay plate, and 5 μL cAMP-d2 added to all wells except non-specific binding (NSB) wells, to which conjugate and lysis buffer was added. […] Data was transformed to % Delta F as described in manufacturer's guidelines and then transformed to percent activation of maximal native agonist response and analysed by 4-parameter logistic fit to determine EC50 values.
(§7) We used unconstrained 4 parameter logistic fit of data, curve mid-point to determine EC50. This was tested on two occasions, not two batches.

T6 sequence (P43220 24-463): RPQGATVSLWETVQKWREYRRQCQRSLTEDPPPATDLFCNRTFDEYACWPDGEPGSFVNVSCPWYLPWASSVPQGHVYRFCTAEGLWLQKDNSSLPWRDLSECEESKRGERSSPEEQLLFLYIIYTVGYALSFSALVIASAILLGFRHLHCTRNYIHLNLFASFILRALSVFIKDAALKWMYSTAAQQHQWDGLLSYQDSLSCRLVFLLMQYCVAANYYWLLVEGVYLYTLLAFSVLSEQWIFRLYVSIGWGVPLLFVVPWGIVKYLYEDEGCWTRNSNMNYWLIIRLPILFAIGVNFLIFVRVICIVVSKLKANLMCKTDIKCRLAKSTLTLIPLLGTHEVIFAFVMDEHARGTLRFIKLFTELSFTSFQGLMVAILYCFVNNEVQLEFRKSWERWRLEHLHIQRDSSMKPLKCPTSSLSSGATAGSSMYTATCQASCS

EC50	Molecule
0.12 nM	B1
16 nM	B2
0.23 nM and 0.2 nM	B3
0.2 nM	B4
0.042 nM	B5
1.1 nM	B6
0.049 nM	B7
4100 nM	B8
500 nM	B9
0.041 nM and 0.023 nM and 0.038 nM	B10

target: T1, human GIP receptor (hGIPr); experiment: BSA-cAMP assay, cells expressing human GIP receptor; type: cell-based; settings: BSA-cAMP assay; batch 1 unless a batch is given; read-out: cAMP activity hGIPr (EC50)
Protocol: For human GIPr, two different lines were used, shown as “hGIPr” and “hGIPr (C3)” in Table 11.
as §1, §2, §3, §4, §5, §6, §7

EC50	Molecule
0.079 nM	B1
2.5 nM	B2
0.025 nM	B4
110 nM	B5
0.11 nM	B6
83 nM	B7
0.0085 nM and 0.0078 nM	B8
0.0038 nM	B9
27 nM	B10

target: T7, human glucagon receptor (GCGr) (Homo sapiens, UniProt P47871); experiment: BSA-cAMP assay, cells expressing human glucagon receptor; type: cell-based; settings: batch 1 unless a batch is given, read-out: cAMP activity hGCGr (EC50)
T7 construct: expressed in transfected cells; host or cells: HEK293s or CHO cells
Protocol: as §1, §2, §3, §4, §5, §6, §7

T7 sequence (P47871 26-477): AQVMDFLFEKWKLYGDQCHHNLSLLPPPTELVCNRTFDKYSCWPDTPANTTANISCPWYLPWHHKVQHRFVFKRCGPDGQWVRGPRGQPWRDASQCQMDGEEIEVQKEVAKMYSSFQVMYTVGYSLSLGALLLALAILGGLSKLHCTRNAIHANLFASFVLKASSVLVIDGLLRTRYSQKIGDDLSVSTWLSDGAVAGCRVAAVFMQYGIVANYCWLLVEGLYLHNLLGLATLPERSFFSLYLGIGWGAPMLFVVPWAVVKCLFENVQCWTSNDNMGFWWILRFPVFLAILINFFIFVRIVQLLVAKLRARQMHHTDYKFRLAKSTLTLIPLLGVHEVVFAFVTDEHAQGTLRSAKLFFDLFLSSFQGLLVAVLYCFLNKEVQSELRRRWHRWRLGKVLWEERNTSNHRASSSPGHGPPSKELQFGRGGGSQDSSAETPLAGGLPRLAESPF

EC50	Molecule
> 6270 nM	B3
> 650 nM	B5
650 nM	B7
900 nM	B8
350 nM	B9

target: T2, mouse GLP-1 receptor (mGLP-1r); experiment: BSA-cAMP assay, cells expressing mouse GLP-1 receptor; type: cell-based; settings: BSA-cAMP assay; read-out: cAMP activity mGLP1r (EC50)
Protocol: as §1, §2, §3, §4, §5, §6, §7
(§8) In order to be able to carry out in vivo studies in rodents, IP088 was tested for potency against the mouse receptors mGIPr and mGLP-1r as well as the rat receptors rGIPr and rGLP-1r, using cells expressing the respective receptors in the cAMP assay described above.

EC50	Molecule
0.85 nM	B1
80 nM	B2
0.84 nM and 1.6 nM	B3
1 nM	B4
22 nM	B6
0.13 nM	B10

target: T3, mouse GIP receptor (mGIPr); experiment: BSA-cAMP assay, cells expressing mouse GIP receptor; type: cell-based; settings: BSA-cAMP assay; read-out: cAMP activity mGIPr (EC50)
Protocol: as §1, §2, §3, §4, §5, §6, §7, §8

EC50	Molecule
34 nM	B1
7.5 nM	B4
35 nM	B6

target: T4, rat GLP-1 receptor (rGLP-1r); experiment: BSA-cAMP assay, cells expressing rat GLP-1 receptor; type: cell-based; settings: BSA-cAMP assay; read-out: cAMP activity rGLP1r (EC50)
Protocol: as §1, §2, §3, §4, §5, §6, §7, §8

EC50	Molecule
0.06 nM	B1
18 nM	B2
0.075 nM and 0.091 nM	B3
0.061 nM	B4
2.2 nM	B6
0.014 nM	B10

target: T5, rat GIP receptor (rGIPr); experiment: BSA-cAMP assay, cells expressing rat GIP receptor; type: cell-based; settings: BSA-cAMP assay; read-out: cAMP activity rGIPr (EC50)
Protocol: as §1, §2, §3, §4, §5, §6, §7, §8

EC50	Molecule
2.3 nM	B1
72 nM	B2
0.27 nM	B4
5.3 nM	B6
